Measured values: US20220175942A1 (OXFORD UNIVERSITY INNOVATION, published 2022)
Residue numbers refer to the chain shown, from its start.

T1: CCL25_HUMAN (human, UniProt O15444 24-150)
T1 construct: Biotinylated (detected with streptavidin-Alexa647) in yeast display; AlexaFluor 647 labelled (Almac) in thermophoresis
T1 sequence: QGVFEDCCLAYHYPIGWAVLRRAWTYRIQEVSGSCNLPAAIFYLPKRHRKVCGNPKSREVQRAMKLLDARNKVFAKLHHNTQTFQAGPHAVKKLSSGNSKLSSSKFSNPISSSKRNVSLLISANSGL

T2: CCL1_HUMAN (human, UniProt P22362 24-96)
T2 construct: Biotinylated (detected with streptavidin-Alexa647) in yeast display; AlexaFluor 647 labelled (Almac) in thermophoresis
T2 sequence: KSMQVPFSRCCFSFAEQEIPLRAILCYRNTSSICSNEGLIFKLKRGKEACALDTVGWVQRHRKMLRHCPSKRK

T3: CXCL8_HUMAN (human, UniProt P10145 28-99)
T3 construct: Biotinylated (detected with streptavidin-Alexa647) in yeast display; AlexaFluor 647 labelled (Almac) in thermophoresis
T3 sequence: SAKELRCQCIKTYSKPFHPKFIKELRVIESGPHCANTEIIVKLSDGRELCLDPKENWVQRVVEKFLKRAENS

T4: CCL18_HUMAN (human, UniProt P55774 21-89)
T4 construct: Biotinylated (detected with streptavidin-Alexa647) in yeast display; AlexaFluor 647 labelled (Almac) in thermophoresis
T4 sequence: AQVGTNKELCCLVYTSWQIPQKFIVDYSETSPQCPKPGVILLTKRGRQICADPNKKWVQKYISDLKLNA

T5: P1243_AMBAM (Amblyomma americanum, UniProt A0A0C9S461 26-123)
T5 construct: Tick evasin; also called Evasin
T5 sequence: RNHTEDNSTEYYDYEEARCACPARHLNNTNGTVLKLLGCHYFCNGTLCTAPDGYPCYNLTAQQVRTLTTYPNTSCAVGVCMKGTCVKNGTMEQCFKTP

T6: P985_AMBPA (Amblyomma parvum, UniProt A0A023FT45 25-132)
T6 construct: Tick evasin; also called Evasin
T6 sequence: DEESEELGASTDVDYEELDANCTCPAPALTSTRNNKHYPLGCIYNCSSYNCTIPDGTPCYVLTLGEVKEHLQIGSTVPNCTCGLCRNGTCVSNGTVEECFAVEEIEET

T7: P467_RHIPU (Rhipicephalus pulchellus, UniProt L7M8Z8 22-127)
T7 construct: Tick evasin; also called Evasin
T7 sequence: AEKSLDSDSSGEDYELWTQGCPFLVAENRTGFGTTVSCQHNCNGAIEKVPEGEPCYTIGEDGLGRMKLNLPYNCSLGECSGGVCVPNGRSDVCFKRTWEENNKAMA

T8: P991_AMBCA (Amblyomma cajennense, UniProt A0A023FFD0 29-136)
T8 construct: Tick evasin; also called Evasin
T8 sequence: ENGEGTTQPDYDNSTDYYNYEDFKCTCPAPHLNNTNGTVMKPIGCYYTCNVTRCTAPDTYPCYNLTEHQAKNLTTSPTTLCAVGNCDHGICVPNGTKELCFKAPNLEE

T9: P1182_AMBMA (Amblyomma maculatum, UniProt G3MJ83 27-115)
T9 construct: Tick evasin; also called Evasin
T9 sequence: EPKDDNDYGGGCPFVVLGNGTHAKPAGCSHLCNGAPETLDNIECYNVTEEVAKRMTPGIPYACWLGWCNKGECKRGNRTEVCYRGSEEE

T10: P1180_AMBTR (Amblyomma triste, UniProt A0A023G6B6 26-116)
T10 construct: Tick evasin; also called Evasin
T10 sequence: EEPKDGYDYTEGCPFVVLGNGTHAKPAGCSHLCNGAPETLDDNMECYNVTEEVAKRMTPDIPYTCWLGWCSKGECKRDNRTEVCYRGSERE

T11: P974_AMBCA (Amblyomma cajennense, UniProt A0A023FDY8 22-118)
T11 construct: Tick evasin; also called Evasin
T11 sequence: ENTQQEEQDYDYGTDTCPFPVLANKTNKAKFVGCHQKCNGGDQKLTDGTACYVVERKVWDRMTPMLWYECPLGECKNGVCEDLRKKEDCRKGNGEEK

T12: P1181_AMBMA (Amblyomma maculatum, UniProt G3MIX6 26-115)
T12 construct: Tick evasin; also called Evasin
T12 sequence: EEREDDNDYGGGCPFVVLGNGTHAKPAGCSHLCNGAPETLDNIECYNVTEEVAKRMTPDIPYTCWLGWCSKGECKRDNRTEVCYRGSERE

T13: P983_AMBCA (Amblyomma cajennense, UniProt A0A023FFB5 22-119)
T13 construct: Tick evasin; also called Evasin
T13 sequence: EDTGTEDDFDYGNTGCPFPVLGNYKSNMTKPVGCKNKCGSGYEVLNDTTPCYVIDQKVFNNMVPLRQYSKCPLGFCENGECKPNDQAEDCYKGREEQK

T14: P672_RHIPU (Rhipicephalus pulchellus, UniProt L7MC74 22-125)
T14 construct: Tick evasin; also called Evasin
T14 sequence: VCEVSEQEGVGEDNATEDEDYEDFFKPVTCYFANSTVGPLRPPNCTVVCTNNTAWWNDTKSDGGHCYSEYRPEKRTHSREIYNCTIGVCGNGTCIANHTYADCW

B1: P546_AMBCA (other)
chain: T11 sequence with Q8E, E69S, D88E
notes: Tick evasin; also called Evasin
B2: P1215_AMBPA (other)
chain: KTDTKNAAGELPPKVVIPGCEDPATTKAPLPDEPPYYGITIDKDGCQRKVLGSSQRQQRKVQNGRKLDGKKRGRRPVFVDLELTVDCKRKCNGTYSQLPDGENCLVSDGYPYGRWGTIKGGCYQGNCSSGQCHRGEKKVNCYLPKNITNDVPKSLNLAE
notes: as for B1
B3: CCL15_HUMAN (ligand)
chain: QFTNDAETELMMSKLPLENPVVLNSFHFAADCCTSYISQSIPCSLMKSYFETSSECSKPGVIFLTKKGRQVCAKPSGPGVQDCMKKLKPYSI
notes: Biotinylated (detected with streptavidin-Alexa647) in yeast display; AlexaFluor 647 labelled (Almac) in thermophoresis
B4: CCL5_HUMAN (ligand)
chain: SPYSSDTTPCCFAYIARPLPRAHIKEYFYTSGKCSNPAVVFVTRKNRQVCANPEKKWVREYINSLEMS
notes: as for B3
B5: CCL4 (ligand)
chain: APMGSDPPTACCFSYTARKLPRNFVVDYYETSSLCSQPAVVFQTKRSKQVCADPSESWVQEYVYDLELN
notes: Biotinylated (detected with streptavidin-Alexa647) in yeast display; also called human CCL4
B6: CCL8_HUMAN (ligand)
chain: QPDSVSIPITCCFNVINRKIPIQRLESYTRITNIQCPKEAVIFKTKRGKEVCADPKERWVRDSMKHLDQIFQNLKP
notes: as for B3

Key:
[1] = target: T1, CCL25_HUMAN; experiment: microscale thermophoresis, AlexaFluor 647 labelled chemokine
[2] = target: T15, CCL11_HUMAN (human, UniProt P51671 24-97); experiment: yeast surface display library FACS screen, labelled chemokine (col C: isolated in)
T15 construct: Biotinylated (detected with streptavidin-Alexa647) in yeast display; AlexaFluor 647 labelled (Almac) in thermophoresis

[3] = target: T2, CCL1_HUMAN; experiment: as above
[4] = target: T3, CXCL8_HUMAN; experiment: as above
[5] = target: B4; experiment: microscale thermophoresis, AlexaFluor 647 labelled chemokine
[6] = target: T4, CCL18_HUMAN; experiment: yeast surface display FACS re-test, >3 fold MFI over control (col D);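 note: yeast displaying putative tick Evasins stained with biotinylated human chemokine plus streptavidin-Alexa647, flow cytometry, positive when MFI exceeds 3-fold the empty-vector or no-chemokine background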
[7] = target: T5, P1243_AMBAM; experiment: microscale thermophoresis, AlexaFluor 647 labelled chemokine
[8] = target: T6, P985_AMBPA; experiment: as above
[9] = target: T7, P467_RHIPU; experiment: as above
[10] = target: T8, P991_AMBCA; experiment: yeast surface display library FACS screen, labelled chemokine (col C: isolated in)
[11] = target: T9, P1182_AMBMA; experiment: as above
[12] = target: T5, P1243_AMBAM; experiment: as above
[13] = target: T10, P1180_AMBTR; experiment: as above
[14] = target: T11, P974_AMBCA; experiment: as above
[15] = target: T12, P1181_AMBMA; experiment: as above
[16] = target: T6, P985_AMBPA; experiment: yeast surface display FACS re-test, >3 fold MFI over control (col D);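 note: yeast displaying putative tick Evasins stained with biotinylated human chemokine plus streptavidin-Alexa647, flow cytometry, positive when MFI exceeds 3-fold the empty-vector or no-chemokine background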
[17] = target: B1; experiment: as above
[18] = target: T13, P983_AMBCA; experiment: as above
[19] = target: T14, P672_RHIPU; experiment: yeast surface display library FACS screen, labelled chemokine (col C: isolated in)
[20] = target: B1; experiment: microscale thermophoresis, AlexaFluor 647 labelled chemokine

T15 sequence (P51671 24-97 limits assumed): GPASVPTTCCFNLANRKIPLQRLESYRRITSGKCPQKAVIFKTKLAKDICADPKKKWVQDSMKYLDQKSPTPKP

With B1 the Kd [1] was 1.22 µM.

B2: binds [2]; binds [3]; binds [4]. The Kd [5] was 0.073 µM and the binding result [6] was “binds”.

For B3, the Kd [7] was 0.004 µM.

B4 gave a Kd [8] of 0.048 µM and a Kd [9] of 0.048 µM.

B5: binds [10]; binds [11]; binds [12]. B5: binds [13]; binds [14]; binds [15]. B5: binds [16]; binds [17]; binds [18].

B6 was tested, and the binding result [19] was “binds”, the binding result [11] was “binds” and the Kd [20] was 0.08 µM.
